# According to PMC3068996:
# Molecular target: recombinant GST-tagged TgNF3 (Toxoplasma gondii nuclear factor 3) (T. gondii)
# Experiment: pull-down
substance,measurement,value
"purified core histones from HeLa cells (H3, H4, H2A/H2B) (from UniProt P68431 1-136; P62805 1-103; P0C0S8 1-130; P62807 1-126) (complex)",percent of input bound,25%
